The text below walks through data of US20180201910.

Data set [1] has as its target T1, ferredoxin encoded by FD gene 1 (Fd5), YP_001864105, Nostoc punctiforme PCC 73102.
T1 chain: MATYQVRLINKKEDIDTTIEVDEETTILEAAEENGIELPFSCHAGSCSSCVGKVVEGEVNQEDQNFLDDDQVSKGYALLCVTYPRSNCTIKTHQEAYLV

Data set [2] concerns the target T2, ferredoxin encoded by FD gene 2 (Fd6), YP_001864826, Nostoc punctiforme PCC 73102.
T2 chain: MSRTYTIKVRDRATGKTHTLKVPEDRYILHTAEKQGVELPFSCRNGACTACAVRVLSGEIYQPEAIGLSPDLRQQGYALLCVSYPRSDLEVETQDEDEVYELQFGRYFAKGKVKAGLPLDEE

Data set [3] addresses T3, ferredoxin encoded by FD gene 3 (Fd7), YP_001865513, Nostoc punctiforme PCC 73102.
T3 chain: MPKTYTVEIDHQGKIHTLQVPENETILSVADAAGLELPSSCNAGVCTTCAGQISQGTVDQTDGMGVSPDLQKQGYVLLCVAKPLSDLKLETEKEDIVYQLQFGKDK

In data set [4] the target is T4, ferredoxin encoded by FD gene 5 (Fd4), YP_001864061, Nostoc punctiforme PCC 73102.
T4 chain: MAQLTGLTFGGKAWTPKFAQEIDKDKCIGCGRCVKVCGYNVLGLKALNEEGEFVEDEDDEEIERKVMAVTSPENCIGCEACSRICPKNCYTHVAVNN

For data set [5], the target named is ferredoxin encoded by FD gene 4 (Fd8), YP_001867060, Nostoc punctiforme PCC 73102.
ferredoxin encoded by FD gene 4 (Fd8), YP_001867060, Nostoc punctiforme PCC 73102, sequence (chain, as listed by the source): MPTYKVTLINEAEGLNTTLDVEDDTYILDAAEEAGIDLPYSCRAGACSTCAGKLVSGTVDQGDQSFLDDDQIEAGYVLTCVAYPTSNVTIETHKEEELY

B1: ferredoxin reductase encoded by FDR gene 2 (FDR2), YP_001866231, Nostoc punctiforme PCC 73102 (protein)
chain: MYNQGAVEGAANIELGSRIFVYEVVGLRQGEETDQTNYPIRKSGSVFIRVPYNRMNQEMRRITRLGGTIVSIQPITALEPVNGKASFGNATSVVSELAKSGETANSEGNGKATPVNAHSAEEQNKDKKGNTMTQAKAKKDHGDVPVNTYRPNAPFIGKVISNEPLVKEGGIGIVQHLKFDLSGGDLKYIEGQSIGIIPPGLDKNGKPEKLRLYSIASTRHGDDVDDKTVSLCVRQLEYKHPETGETVYGVCSTHLCFLKPGEEVKITGPVGKEMLLPNDPDANVIMMATGTGIAPMRAYLWRQFKDAERAANPEYQFKGFSWLIFGVPTTPNLLYKEELEEIQQKYPENFRLTAAISREQKNPQGGRMYIQDRVAEHADELWQLIKNEKTHTYICGLRGMEEGIDAALTAAAAKEGVTWSDYQKQLKKAGRWHVETY
B1: the “amount of alkane production 3 days after the initiation of culture compared with the amount of Strain No. 2 (E. coli Rosetta co-expressing decarbonylase and acyl-ACP reductase, GC/MS)” value in data set [1] is listed as 1.9 times; in data set [2], 2.5 times; in data set [3] it was 3.8 times; in data set [4] it was “x”; in data set [5], 3.0 times. The “effects of improving the alkane productivity in the E. coli JM109 strain” value in data set [3] is on record as “two times greater in the E. coli JM109 strain”. The “effects of improving the alkane productivity in the Klebsiella sp. 100048 strain” value in data set [3] is reported as 4 times greater than the effects in the Klebsiella sp. 100048 strain.

B2: ferredoxin reductase encoded by FDR gene 3 (FDR3), YP_001868825, Nostoc punctiforme PCC 73102 (protein)
chain: MSFTSMPSLREQQHPLIRQLADCIEAAWHQHLDLSPYHLPDELGYVEGRLEGEKLTIENRCYQTPQFRKMHLELANIGNMLDILHCVMFPRPQYNLPMFGCDLVGGRGQISAAIADLSPIQLERTLPESYTTALAQLPVLNFSQPRELPEWGNIFSDFCIFVRPGSPEEEAMFLSRVREFLDIHCMQAIASHPVSVEQVTQNLAGQHNYCTKQQQNDKTRRVLEKAFGPVWAENYMTTVLFDLPT
Consider B2, for which the “amount of alkane production 3 days after the initiation of culture compared with the amount of Strain No. 2 (E. coli Rosetta co-expressing decarbonylase and acyl-ACP reductase, GC/MS)” value in data set [1] is “x”; in data set [2], 3.4 times; in data set [3], 2.0 times; in data set [4], “x”; in data set [5], “x”.

B3: ferredoxin reductase encoded by FDR gene 1 (FDR1), YP_001865390, Nostoc punctiforme PCC 73102 (protein)
chain: MNSPVYQTVIVGGGFTGLFTALHLAHEHYPRSVILIDKDERFCFKPLLYEYFDGEMDTFQVVPRFSELLKGSGVIFVQDTVQSINLHQREVKLASGNSYNYSNLVLALGSVTGYHQVEGARENAFPFWTQADAIALDRHLRDCLQKAVQTEDVEQRRKLLTVVIVGGGASGVEMAATLADFLPHWYSALGGNSSEIRVVLLNHGKEILDGDINNPLREIAERELNKRAVPIEMIVEAEATAIGSTSIQYKRNEQIETLATHTTVWTAGTSTHPLIKDLPIPKEHRDRRDRPLVTPNLQLLDFPEVFVGGDCAAVQDNSLPPTAQVAYQQGANIAQNLKALALGEEPKPAKVNIRGTLLKLGINDAAANLFNVFEVVGETAHLIRQGTYLTLLPAPIHDFKATTEWVDEEVFHQHLDPHDVGKKVVQAAEIVGVGVVGILAARKLLKMLGDEDKNSK
For the protein B3, the “amount of alkane production 3 days after the initiation of culture compared with the amount of Strain No. 2 (E. coli Rosetta co-expressing decarbonylase and acyl-ACP reductase, GC/MS)” value in data set [1] was 2.5 times; in data set [2], 2.4 times; in data set [3] it was “x”; in data set [4], “x”; in data set [5] it was 2.6 times.
